How the values were obtained:
GST-LEDGF = GST-LEDGF (UniProt O75475); test: GST-pull down, quantitation of bound protein; details: parent: est. 1.0; read off a plot
GST-Gemin2 = GST-Gemin2 (UniProt O14893); test: GST-pull down, quantitation of bound protein; details: parent: est. 1.0; read off a plot
GST-SAP18 = GST-SAP18 (UniProt O00422); test: pull-down; GST-INI1, GST-SAP18, GST-LEDGF or GST-Gemin2 as bait, His6-IN(WT) or His6-IN(W235E) as prey; bound protein quantified as fraction bound after normalising to the loading control
Chain of GST-SAP18 (O00422 whole entry): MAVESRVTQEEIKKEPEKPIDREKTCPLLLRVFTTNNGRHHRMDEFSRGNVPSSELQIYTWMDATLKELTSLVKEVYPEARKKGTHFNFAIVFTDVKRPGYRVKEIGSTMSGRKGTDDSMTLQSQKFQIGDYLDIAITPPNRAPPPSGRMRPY

Chain of GST-LEDGF (O75475 whole entry): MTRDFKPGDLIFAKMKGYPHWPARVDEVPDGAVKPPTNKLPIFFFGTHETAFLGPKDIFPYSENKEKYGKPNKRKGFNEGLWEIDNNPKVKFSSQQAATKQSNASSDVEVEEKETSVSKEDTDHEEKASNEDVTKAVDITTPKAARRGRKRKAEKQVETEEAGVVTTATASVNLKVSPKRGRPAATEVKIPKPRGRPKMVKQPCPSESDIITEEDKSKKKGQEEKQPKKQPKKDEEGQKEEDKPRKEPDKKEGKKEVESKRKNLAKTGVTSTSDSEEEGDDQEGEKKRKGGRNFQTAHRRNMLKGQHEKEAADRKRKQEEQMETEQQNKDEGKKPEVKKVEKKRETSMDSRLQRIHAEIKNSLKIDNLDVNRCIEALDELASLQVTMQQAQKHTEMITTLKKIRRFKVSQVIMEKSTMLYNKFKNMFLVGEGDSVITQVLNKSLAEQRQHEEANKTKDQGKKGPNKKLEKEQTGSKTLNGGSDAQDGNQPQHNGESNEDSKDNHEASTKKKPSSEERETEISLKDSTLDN
Chain of GST-Gemin2 (O14893 whole entry): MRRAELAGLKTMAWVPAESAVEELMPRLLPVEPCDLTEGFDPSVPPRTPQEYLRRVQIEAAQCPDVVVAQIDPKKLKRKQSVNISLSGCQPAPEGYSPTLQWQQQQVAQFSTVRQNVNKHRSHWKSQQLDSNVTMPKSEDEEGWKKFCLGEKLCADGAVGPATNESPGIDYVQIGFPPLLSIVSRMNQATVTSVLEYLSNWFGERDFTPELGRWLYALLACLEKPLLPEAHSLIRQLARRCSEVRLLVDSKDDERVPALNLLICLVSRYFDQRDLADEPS

Substance	ratio to parent (GST-LEDGF)	ratio to parent (GST-Gemin2)	% binding (GST-SAP18)
His6-IN(WT) W235E	0.82	0.8	–
His6-IN(W235E) (enzyme)	–	–	20%
